From patent US20230212288A1 (published 2023)
One block for each binder: values may come before it.

Tests used:
[1] = target: T1, human CD3 receptor complex (human, UniProt P07766 23-207; P09693 23-182; P04234 22-171); experiment: cell-based or functional assay
[2] = target: T1, human CD3 receptor complex; experiment: flow cytometry on PBMCs of donor; competition of titrated BSAB with 100 nM biotin-conjugated BSAB, PE-streptavidin detection
Description: (§1) The blood was diluted with the same volume of the phosphate buffered saline (ECO-Servis, Cat. No. B-60201), layered above Ficoll density gradient (ρ=1.077 g/cm³) (“Pan-Eco”, Cat. No. P052) and centrifuged at 800 g and 20±2° C. for 30 minutes. PBMCs were collected at the phase boundary and washed twice with an isotonic phosphate buffered saline. A cell deposit was re-suspended in 15 mL of the DMEM/F12 medium (Sigma, Cat. No. D8900-10L) with 10% fetal bovine serum (GE Healthcare, Cat. No. SV30160) and incubated in a cultural vial (SPL Life Sciences Co, Cat. No. 70075) for attaching monocytes at 37±2° C. for 4 hours. Upon incubation, unattached cells were collected, a cell suspension was centrifuged, a cell deposit was re-suspended in the FACS buffer with a 1:100 Fc Blook solution (BD Pharmingen™, Cat. No. 564220) for inhibiting non-specific binding of Fc-receptors exposed on B-cell membranes. The prepared PBMC suspension with the cell concentration of 4*10⁶/mL was introduced by 50 μL (2*10⁵ cells per well) into a 96-well plate with a V-shaped bottom (Corning Inc, Cat. No. 3894).
(§2) Then a solution of biotin-conjugated BSAB with the concentration of 300 nM was prepared and introduced into wells with cells by 50 μL (preparation final concentration being 100 nM). […] Cell fluorescence intensity in the PE-channel was measured with the use of the Canto II cytometer. […]

[3] = target: T1, human CD3 receptor complex; experiment: flow cytometry on Jurkat cells (CD3-positive), FITC anti-human IgG detection
Description: (§3) Cell suspensions of CD19-positive cell lines (NALM6 (ATCC® CRL-3273™), Toledo (ATCC® CRL-2631™), Namalwa (ATCC® CRL-1432™), Daudi (ATCC® CCL-213™), Ramos (RA 1) (ATCC® CRL-1596™), Raji (ATCC® CCL-86™)) and CD3-positive cell lines (HuT78 (ATCC® TIB-161™), CCRF-CEM (ATCC® CCL-119™), Jurkat (ATCC® TIB-152™)) with the concentration of 2*10⁶ cells/mL were introduced by 30 μL into a 96-well plate with a V-shaped bottom (Corning Inc, Cat. No. 3894). […] When the incubation was over, the cells were twice washed with the FACS buffer and deposited by centrifuging at 1000 rpM and (4±2°) C. 30 μL of a solution of FITC-tagged antibodies directed against human IgG (Donkey F(ab)₂ Anti-Human IgG, Abcam, Cat. No. Ab102437) diluted in the 1:200 ratio were added into each well to the deposited cells, and incubated on ice in the dark for 30 minutes, followed by triple washing with the FACS buffer. Then the cells were fixed by re-suspending the cell deposit in each well in 150 μL of the FIX-buffer (phosphate buffered saline with 1%-solution of formalin). Cell fluorescence intensity in the FITC-channel was measured with the use of the Canto II cytometer.

[4] = target: T1, human CD3 receptor complex; experiment: flow cytometry on PBMCs of donor alpha; competition of titrated BSAB with 100 nM biotin-conjugated BSAB, PE-streptavidin detection
Description: as §1, §2

[5] = target: T1, human CD3 receptor complex; experiment: flow cytometry on HUT78 cells (CD3-positive), FITC anti-human IgG detection
Description: as §3

[6] = target: T1, human CD3 receptor complex; experiment: flow cytometry on CCRF-CEM cells (CD3-positive), FITC anti-human IgG detection
Description: as §3

[7] = target: T1, human CD3 receptor complex; experiment: flow cytometry on PBMCs of donor beta; competition of titrated BSAB with 100 nM biotin-conjugated BSAB, PE-streptavidin detection
Description: as §1, §2

[8] = target: T1, human CD3 receptor complex; experiment: cell-based or functional assay; remark: listed apart in the source

T1 sequence (P07766 23-207, chain 1 of 3): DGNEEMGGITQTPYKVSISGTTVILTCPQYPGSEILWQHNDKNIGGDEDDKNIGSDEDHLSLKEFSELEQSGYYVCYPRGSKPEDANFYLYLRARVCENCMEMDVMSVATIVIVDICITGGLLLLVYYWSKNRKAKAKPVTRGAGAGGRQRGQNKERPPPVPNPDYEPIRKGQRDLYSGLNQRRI
T1 sequence (P09693 23-182, chain 2 of 3): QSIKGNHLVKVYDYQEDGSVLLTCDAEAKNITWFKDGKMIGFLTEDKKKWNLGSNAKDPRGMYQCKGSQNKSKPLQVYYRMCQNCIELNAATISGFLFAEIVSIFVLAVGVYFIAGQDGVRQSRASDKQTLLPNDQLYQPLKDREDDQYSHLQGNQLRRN
T1 sequence (P04234 22-171, chain 3 of 3): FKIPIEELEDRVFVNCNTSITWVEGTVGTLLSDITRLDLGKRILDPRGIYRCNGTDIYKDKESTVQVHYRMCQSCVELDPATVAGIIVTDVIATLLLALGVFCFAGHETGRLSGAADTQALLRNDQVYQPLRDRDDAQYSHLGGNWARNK

B1: 309_04_A04 (bispecific antibody)
chain: DIQLTQTPASLAVSLGQRATISCKASQSVDYDGDSYLNWYQQIPGQPPKLLIYDASNLVSGIPPRFSGSGSGTDFTLNIHPVEKVDAATYHCQQSTEDPWTFGGGTKLEIKGGSGGAMAQVQLQQWGAGLLKPSETLSLTCAVYGGSFSGYYWSWIRQPPGKGLEWIGEISRSGTTNYNSSLKSRVTISVDTSKNQFSLKLSSVTAADTAVYYCARATRNGVFDYWGQGTLVTVSSGGGGSGGGGSGGGASNFMLTQPHSVSESPGKTVTISCTRSSGSIASNYVQWYQQRPGSAPSTVIYEDNQRPSGVPDRFSGSIDSSSNSASLTISGLKTEDEADYYCQSYDSGVVFGGGTKLTVLGQPAAAGGGGSQVQLQQSGAELVRPGSSVKISCKASGYAFSSYWMNWVKQRPGQGLEWIGQIWPGDGDTNYNGKFKGKATLTADESSSTAYMQLSSLASEDSAVYFCARRETTTVGRYYYAMDYWGQGTSVTVSSASAAVECPPCPAPPVAGPSVFLFPPKPKDTLMISRTPEVTCVVVDVSHEDPEVQFNWYVDGVEVHNAKTKPREEQFNSTFRVVSVLTVVHQDWLNGKEYKCKVSNKGLPAPIEKTISKTKGQPREPQVYTLPPSREEMTKNQVSLTCLVKGFYPSDIAVEWESNGQPENNYKTTPPMLDSDGSFFLYSKLTVDKSRWQQGNVFSCSVMHEALHNHYTQKSLSLSPGK
Activity (EC50 for activation of Jurkat line cells, pM) [1]: 3.7 pM

B3: 400_03_H07 (bispecific antibody)
chain: DIQLTQTPASLAVSLGQRATISCKASQSVDYDGDSYLNWYQQIPGQPPKLLIYDASNLVSGIPPRFSGSGSGTDFTLNIHPVEKVDAATYHCQQSTEDPWTFGGGTKLEIKGGSGGAMAQVQLVESGGGVVQPGRSLRLSCAASGFTFSSYSMNWVRQAPGKGLEWVSSISSSSSYIYYADSVKGRFTISRDNAKNSLYLQMNSLRAEDTAVYYCARSGIAAAGFDYWGQGTLVTVSSGGGGSGGGGSGGGASNFMLTQPHSVSESPGKTVTISCARSSGSIASNYVQWYQQRPGSSPTTVIYEDNRRPSGVPDRFSGSFDSSSNSASLTISGLKTEDEADYYCQSYDSSNRVFGGGTKLTVLGQPAAAGGGGSQVQLQQSGAELVRPGSSVKISCKASGYAFSSYWMNWVKQRPGQGLEWIGQIWPGDGDTNYNGKFKGKATLTADESSSTAYMQLSSLASEDSAVYFCARRETTTVGRYYYAMDYWGQGTSVTVSSASAAVECPPCPAPPVAGPSVFLFPPKPKDTLMISRTPEVTCVVVDVSHEDPEVQFNWYVDGVEVHNAKTKPREEQFNSTFRVVSVLTVVHQDWLNGKEYKCKVSNKGLPAPIEKTISKTKGQPREPQVYTLPPSREEMTKNQVSLTCLVKGFYPSDIAVEWESNGQPENNYKTTPPMLDSDGSFFLYSKLTVDKSRWQQGNVFSCSVMHEALHNHYTQKSLSLSPGK
Activity (EC50 for activation of Jurkat line cells, pM) [1]: 328 pM

B4: 400_01_D06 (bispecific antibody)
chain: DIQLTQTPASLAVSLGQRATISCKASQSVDYDGDSYLNWYQQIPGQPPKLLIYDASNLVSGIPPRFSGSGSGTDFTLNIHPVEKVDAATYHCQQSTEDPWTFGGGTKLEIKGGSGGAMAQVQLVQSGAEVKKPGSSVKVSCKASGGTFSSYAISWVRQAPGQGLEWMGGIIPIFGTANYAQKFQGRVTITADESTSTAYMEVRSLRSDDTAVYYCVRDRGDYGDITYFDYWGQGTLVTVSSGGGGSGGGGSGGGASNFMLTQPHSVSESPGKTVTISCTGSSGSIASNYVQWYQQRPGSAPTIVIYEDNHRPSGVPDRFSGSIDSSSNSASLTISGLKTEDEADYYCQSYDSSDRVVFGGGTKVTVLGQPAAAGGGGSQVQLQQSGAELVRPGSSVKISCKASGYAFSSYWMNWVKQRPGQGLEWIGQIWPGDGDTNYNGKFKGKATLTADESSSTAYMQLSSLASEDSAVYFCARRETTTVGRYYYAMDYWGQGTSVTVSSASAAVECPPCPAPPVAGPSVFLFPPKPKDTLMISRTPEVTCVVVDVSHEDPEVQFNWYVDGVEVHNAKTKPREEQFNSTFRVVSVLTVVHQDWLNGKEYKCKVSNKGLPAPIEKTISKTKGQPREPQVYTLPPSREEMTKNQVSLTCLVKGFYPSDIAVEWESNGQPENNYKTTPPMLDSDGSFFLYSKLTVDKSRWQQGNVFSCSVMHEALHNHYTQKSLSLSPGK
Activity (EC50 for activation of Jurkat line cells, pM) [1]: 17.5 pM

Now from value to binder:

IC50 [2]: 62.3 nM
Activity (EC50 for activation of Jurkat line cells, pM) [1]: 2.2 pM
EC50 [3]: 0.37 nM
IC50 [4]: 52.1 nM
EC50 [5]: 1.2 nM
EC50 [6]: 0.4 nM
IC50 [7]: 66.5 nM
EC50 of chemiluminescence signal, Raji cells with Jurkat-Luc-NFAT reporter cells [8]: 0.0023 nM
B2: 309_02_A08 BSAB clone (bispecific antibody)
chain: DIQLTQTPASLAVSLGQRATISCKASQSVDYDGDSYLNWYQQIPGQPPKLLIYDASNLVSGIPPRFSGSGSGTDFTLNIHPVEKVDAATYHCQQSTEDPWTFGGGTKLEIKGGSGGAMAQVQLVQSGAEVKKPGASVKVSCKASGYTFTGYYMHWVRQAPGQGLEWMGIINPSGGSTSYAQKFQGRVTMTRDTSTSTVYMELSSLRSEDTAVYYCARTGKNYYYYGMDAWGQGTTVTVSSGGGGSGGGGSGGGASNFMLTQPHSVSESPGKTVTISCTRSSGSIARNYVQWYQQRPGSSPTTVIYEDNQRPSGVPDRFSASIDSSSNSASLTISGLQTEDEADYYCQSYDTSNHVVFGGGTKLTVLGQPAAAGGGGSQVQLQQSGAELVRPGSSVKISCKASGYAFSSYWMNWVKQRPGQGLEWIGQIWPGDGDTNYNGKFKGKATLTADESSSTAYMQLSSLASEDSAVYFCARRETTTVGRYYYAMDYWGQGTSVTVSSASAAVECPPCPAPPVAGPSVFLFPPKPKDTLMISRTPEVTCVVVDVSHEDPEVQFNWYVDGVEVHNAKTKPREEQFNSTFRVVSVLTVVHQDWLNGKEYKCKVSNKGLPAPIEKTISKTKGQPREPQVYTLPPSREEMTKNQVSLTCLVKGFYPSDIAVEWESNGQPENNYKTTPPMLDSDGSFFLYSKLTVDKSRWQQGNVFSCSVMHEALHNHYTQKSLSLSPGK
notes: described order VL CD3-VH CD19-VL CD19-VH CD3 with hinge and IgG2 Fc; the tie is not explicit; also called BSAB preparation

Activity (EC50 for activation of Jurkat line cells, pM) [1]: 32.2 pM
B5: 309_02_F01 (bispecific antibody)
chain: DIQLTQTPASLAVSLGQRATISCKASQSVDYDGDSYLNWYQQIPGQPPKLLIYDASNLVSGIPPRFSGSGSGTDFTLNIHPVEKVDAATYHCQQSTEDPWTFGGGTKLEIKGGSGGAMAEVQLVQSGAEVKKPGASVKVSCKASGYTFTGYYMHWVRQAPGQGLEWMGWINPNSGGTNYAQKFQGRVTMTRDTSISTAYMELSSLRSEDTAVYYCARDKRYSSGWYENWGQGTLVTVSSGGGGSGGGGSGGGASNFMLTQPHSVSESPGKTVTISCTRSSGSIASKYVQWYQQRPGSSPTTVIYEDNQRPSGVPDRFSGSIDISSNSASLTISGLKTEDEADYFCQSYDSSSVIFGGGTKLTVLGQPAAAGGGGSQVQLQQSGAELVRPGSSVKISCKASGYAFSSYWMNWVKQRPGQGLEWIGQIWPGDGDTNYNGKFKGKATLTADESSSTAYMQLSSLASEDSAVYFCARRETTTVGRYYYAMDYWGQGTSVTVSSASAAVECPPCPAPPVAGPSVFLFPPKPKDTLMISRTPEVTCVVVDVSHEDPEVQFNWYVDGVEVHNAKTKPREEQFNSTFRVVSVLTVVHQDWLNGKEYKCKVSNKGLPAPIEKTISKTKGQPREPQVYTLPPSREEMTKNQVSLTCLVKGFYPSDIAVEWESNGQPENNYKTTPPMLDSDGSFFLYSKLTVDKSRWQQGNVFSCSVMHEALHNHYTQKSLSLSPGK
